Laboratory results as given in patent US20070071744A1 (published 2007).
Ends that are not written are not given here.

What was measured:
Assay in all cases: PepSpot peptide array
peptide 97 = biological target: T1, peptide 97 (human)
T1 peptide: Ac-APSDPLELVVTGT
Procedure: (§1) The peptides were synthesized on a cellulose membrane in a stepwise manner resulting in a defined arrangement (peptide array) and are covalently bound to the cellulose membrane. Binding assays were performed directly on the peptide array. In general an antigen peptide array is incubated with blocking buffer for several hours to reduce non-specific binding of proteins or antibodies. It follows the incubation with a primary (antigen peptide-binding) antibody in blocking buffer and an incubation with a horseradish peroxidase (HRP)-labelled secondary antibody, which binds selectively the primary antibody. Alternatively a HRP-labelled primary antibody in blocking buffer can be used.
(§2) A short T(Tween)-TBS-buffer washing directly after the incubation of the antigen peptide array with the secondary protein or antibody or the HRP-labelled primary antibody followed by the first chemiluminescence experiment is made to get an first overview which antigen peptides do bind the primary antibody. Several buffer washing steps follow (T-TBS- and TBS-buffer) to reduce false positive binding (unspecific antibody binding to the cellulose membrane itself). After these washing steps the final chemiluminescence analysis is performed. The data were analysed with an imaging system showing the signal intensity (Light units, LU) as single measurements for each peptide. In order to evaluate non-specific binding of secondary antibodies, incubations using the secondary antibody have to be performed in the absence of the primary antibody as control incubation.

peptide 1 = biological target: T2, peptide 1 (human)
T2 peptide: Ac-MSPSPTALFCLGL
Procedure: as §1, §2

peptide 49 = biological target: T3, peptide 49 (human)
T3 peptide: Ac-SLPSDQLELVATG
Procedure: as §1, §2

peptide 130 = biological target: T4, peptide 130 (human)
T4 peptide: Ac-GPARQYYTKGNGG
Procedure: as §1, §2

peptide 103 = biological target: T5, peptide 103 (human)
T5 peptide: Ac-TSVTPSRLPTEPP
Procedure: as §1, §2

peptide 5 = biological target: T6, peptide 5 (human, cysteine pairing not given here)
T6 peptide: Ac-FCLGLCLGRVPAQ
Procedure: as §1, §2

peptide 17 = biological target: T7, peptide 17 (human)
T7 peptide: Ac-LPSSLVPLEKPVT
Procedure: as §1, §2

peptide 65 = biological target: T8, peptide 65 (human)
T8 peptide: Ac-DVTLQCQTRYGFD
Procedure: as §1, §2

peptide 28 = biological target: T9, peptide 28 (human)
T9 peptide: Ac-DLYRLEKLSSSRY
Procedure: as §1, §2

peptide 87 = biological target: T10, peptide 87 (human)
T10 peptide: Ac-AHSGTYRCYSFSS
Procedure: as §1, §2

peptide 22 = biological target: T11, peptide 22 (human)
T11 peptide: Ac-PVTLRCQGPPGVD
Procedure: as §1, §2

peptide 25 = biological target: T12, peptide 25 (human)
T12 peptide: Ac-QGPPGVDLYRLEK
Procedure: as §1, §2

peptide 14 = biological target: T13, peptide 14 (human)
T13 peptide: Ac-KPSLQALPSSLVP
Procedure: as §1, §2

peptide 92 = biological target: T14, peptide 92 (human)
T14 peptide: Ac-FSSRDPYLWSAPS
Procedure: as §1, §2

peptide 124 = biological target: T15, peptide 124 (human)
T15 peptide: Ac-ITTSPKESDSPAG
Procedure: as §1, §2

peptide 27 = biological target: T16, peptide 27 (human)
T16 peptide: Ac-GVDLYRLEKLSSS
Procedure: as §1, §2

peptide 120 = biological target: T17, peptide 120 (human)
T17 peptide: Ac-FTTETSRSITTSP
Procedure: as §1, §2

peptide 106 = biological target: T18, peptide 106 (human)
T18 peptide: Ac-RLPTEPPSSVAEF
Procedure: as §1, §2

peptide 45 = biological target: T19, peptide 45 (human)
T19 peptide: Ac-SYQNGSLWSLPSD
Procedure: as §1, §2

peptide 21 = biological target: T20, peptide 21 (human)
T20 peptide: Ac-EKPVTLRCQGPPG
Procedure: as §1, §2

peptide 46 = biological target: T21, peptide 46 (human)
T21 peptide: Ac-QNGSLWSLPSDQL
Procedure: as §1, §2

peptide 42 = biological target: T22, peptide 42 (human)
T22 peptide: Ac-AGRYRCSYQNGSL
Procedure: as §1, §2

peptide 96 = biological target: T23, peptide 96 (human)
T23 peptide: Ac-WSAPSDPLELVVT
Procedure: as §1, §2

peptide 61 = biological target: T24, peptide 61 (human)
T24 peptide: Ac-GPAVSSGGDVTLQ
Procedure: as §1, §2

peptide 11 = biological target: T25, peptide 11 (human)
T25 construct: also called QSGPLPKPSLQAL
T25 peptide: Ac-QSGPLPKPSLQAL
Procedure: as §1, §2

peptide 73 = biological target: T26, peptide 73 (human)
T26 peptide: Ac-LYKEGDPAPYKNP
Procedure: as §1, §2

peptide 78 = biological target: T27, peptide 78 (human)
T27 peptide: Ac-KNPERWYRASFPI
Procedure: as §1, §2

peptide 58 = biological target: T28, peptide 58 (human)
T28 peptide: Ac-SLSAQPGPAVSSG
Procedure: as §1, §2

peptide 64 = biological target: T29, peptide 64 (human)
T29 peptide: Ac-GGDVTLQCQTRYG
Procedure: as §1, §2

peptide 94 = biological target: T30, peptide 94 (human)
T30 construct: also called DPYLWSAPSDPLE
T30 peptide: Ac-DPYLWSAPSDPLE
Procedure: as §1, §2

peptide 107 = biological target: T31, peptide 107 (human)
T31 peptide: Ac-PTEPPSSVAEFSE
Procedure: as §1, §2

peptide 56 = biological target: T32, peptide 56 (human)
T32 peptide: Ac-FAKPSLSAQPGPA
Procedure: as §1, §2

peptide 127 = biological target: T33, peptide 127 (human)
T33 peptide: Ac-ESDSPAGPARQYY
Procedure: as §1, §2

peptide 18 = biological target: T34, peptide 18 (human)
T34 peptide: Ac-SSLVPLEKPVTLR
Procedure: as §1, §2

peptide 29 = biological target: T35, peptide 29 (human)
T35 peptide: Ac-YRLEKLSSSRYQD
Procedure: as §1, §2

peptide 63 = biological target: T36, peptide 63 (human)
T36 peptide: Ac-SSGGDVTLQCQTR
Procedure: as §1, §2

peptide 36 = biological target: T37, peptide 36 (human)
T37 peptide: Ac-AVLFIPAMKRSLA
Procedure: as §1, §2

peptide 60 = biological target: T38, peptide 60 (human)
T38 peptide: Ac-QPGPAVSSGGDVT
Procedure: as §1, §2

peptide 72 = biological target: T39, peptide 72 (human)
T39 peptide: Ac-FALYKEGDPAPYK
Procedure: as §1, §2

peptide 116 = biological target: T40, peptide 116 (human)
T40 peptide: Ac-TVSFTNKVFTTET
Procedure: as §1, §2

peptide 126 = biological target: T41, peptide 126 (human)
T41 peptide: Ac-PKESDSPAGPARQ
Procedure: as §1, §2

B1: monoclonal antibody hGP 5C4 (antibody, V domains shown)
VH: EVKLQESGGGLVQPGRSLKLSCTASGFTFSDYFMSWVRQAPTRGLEWVASISSGGASAYWRDSVKGRFTISRDNAKSALYLQMDSLRSEDTATYFCARGELDFDYWGQGVMVAVSS
VL: ADPNSTLLSASVGDRVTLNCTASQNVYKNLAWYQQKLGEAPRLLLYSANSQTGIPSRFSGSGSGPDFTLTISSLQPEDVASYFCQQYYSGNTFGAGTKLELKR
notes: Rat hybridoma antibody (Lou/C rats), heavy chain gamma 2a, light chain kappa; also called ab 5C4; anti-GPVI mAb 5C4
LU (Light Units) (peptide 97): 147 LU | LU (Light Units) (peptide 1): 149 LU | LU (Light Units) (peptide 49): 91 LU | LU (Light Units) (peptide 130): 255 LU | LU (Light Units) (peptide 103): 50 LU | LU (Light Units) (peptide 5): 26 LU | LU (Light Units) (peptide 17): 160 LU | LU (Light Units) (peptide 65): 26 LU | LU (Light Units) (peptide 28): 179 LU | LU (Light Units) (peptide 87): 93 LU | LU (Light Units) (peptide 22): 76 LU | LU (Light Units) (peptide 25): 56 LU | LU (Light Units) (peptide 14): 1420 LU | LU (Light Units) (peptide 92): 110 LU | LU (Light Units) (peptide 124): 66 LU | LU (Light Units) (peptide 27): 100 LU | LU (Light Units) (peptide 120): 250 LU | LU (Light Units) (peptide 106): 2 LU | LU (Light Units) (peptide 45): 12 LU | LU (Light Units) (peptide 21): 128 LU | LU (Light Units) (peptide 46): 1 LU | LU (Light Units) (peptide 42): 41 LU | LU (Light Units) (peptide 96): 210 LU | LU (Light Units) (peptide 61): 71 LU | LU (Light Units) (peptide 11): 3540 LU | signal to noise ratio (peptide 11): ~20 ratio | LU (Light Units) (peptide 73): 33 LU | LU (Light Units) (peptide 78): 51 LU | LU (Light Units) (peptide 58): 110 LU | LU (Light Units) (peptide 64): 6 LU | LU (Light Units) (peptide 94): 63 LU | LU (Light Units) (peptide 107): 71 LU | LU (Light Units) (peptide 56): 759 LU | LU (Light Units) (peptide 127): 101 LU | LU (Light Units) (peptide 18): 219 LU | LU (Light Units) (peptide 29): 169 LU | LU (Light Units) (peptide 63): 2 LU | LU (Light Units) (peptide 36): 125 LU | LU (Light Units) (peptide 60): 88 LU | LU (Light Units) (peptide 72): 35 LU | LU (Light Units) (peptide 116): 224 LU | LU (Light Units) (peptide 126): 119 LU
